Key:
HER2-DI-DIII-his = molecular target: T1, HER2-DI-DIII-his (Homo sapiens (Human), UniProt P04626 23-510); assay: ELISA, plate coated with HER2-DI-DIII-his, detection with HRP-anti human IgG Fc
T1 construct: also called HER2-ECD-DI-DIII

HER2-DI-DIII-L295P/H296N = molecular target: T2, HER2-DI-DIII-L295P/H296N (Homo sapiens (Human), UniProt P04626 23-510); assay: ELISA, plate coated with HER2-DI-DIII-L295P/H296N
T2 construct: also called HER2-DI-DIII-L295/H296N

[1] = molecular target: T3, HER2 (on HER2高表达细胞株 N87 / BT474) (UniProt P04626 23-1255, limits assumed); assay: cell-based or functional assay
[2] = molecular target: T3, HER2 (on HER2高表达细胞株 N87 / BT474); assay: cell-based or functional assay; remark: listed apart in the source
[3] = molecular target: T4, HER2-DI-DIII-V483A/D480A/E485A (Homo sapiens (Human), UniProt P04626 23-513); assay: ELISA, plate coated with HER2-DI-DIII-V483A/D480A/E485A
T4 chain: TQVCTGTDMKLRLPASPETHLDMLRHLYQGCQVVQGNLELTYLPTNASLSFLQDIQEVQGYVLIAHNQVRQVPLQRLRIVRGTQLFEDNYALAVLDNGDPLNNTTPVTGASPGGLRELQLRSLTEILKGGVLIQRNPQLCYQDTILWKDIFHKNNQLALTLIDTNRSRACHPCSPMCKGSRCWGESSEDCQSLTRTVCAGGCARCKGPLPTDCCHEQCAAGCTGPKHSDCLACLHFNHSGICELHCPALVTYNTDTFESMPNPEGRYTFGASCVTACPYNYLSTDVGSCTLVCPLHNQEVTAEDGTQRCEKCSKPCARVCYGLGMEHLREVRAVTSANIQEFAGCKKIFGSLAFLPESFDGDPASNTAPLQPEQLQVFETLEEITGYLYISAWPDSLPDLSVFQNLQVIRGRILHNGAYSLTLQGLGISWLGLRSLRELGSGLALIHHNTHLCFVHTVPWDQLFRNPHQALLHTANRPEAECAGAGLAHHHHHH

B1: 抗HER2抗体612 (antibody, V domains shown)
VH: QVQLVQSGAEVKKPGASVKVSCKGSGYTFTDYAIHWVRQAPGQSLEWIGVFSIYYENINYNQKFKGRATMTVDKSTSTAYMELRSLRSDDTAVYYCARRDGGTINYWGQGTLVTVSS
VL: DVVMTQSPLSLPVTLGQPASISCRSSQSLVHSNGNTYLHWYQQRPGQSPRLLIYKVSNRFSGVPDRFSGSGSGTDFTLKISRVEAEDVGVYFCSQSTHIPWTFGQGTKVEIK
notes: No visible text gives the full heavy chain; also called 19H6-Hu
In the case of B1, the EC50 (HER2-DI-DIII-his) is reported as 43 pM, the EC50 (HER2-DI-DIII-L295P/H296N) is reported as 27 pM and the “最大抑制率(%), BT474细胞增殖 (CCK8)” value [1] is reported as 47.1%. For the same binder, the “最大抑制率(%), N87细胞增殖 (CCK8)” value [2] was 41.8% and the binding result [3] was “no binding (tested: 最高浓度为10nM)”.

Reference: patent CN114805590A (SUNSHINE GUOJIAN PHARMACEUTICAL SHANGHAI CO LTD, dated 2022)
